Experiments:
Assay in all cases: EMSA
[1] = target: T1, LigR1 (Pseudomonas putida KT2440) (UniProt Q88JP0)
T1 sequence: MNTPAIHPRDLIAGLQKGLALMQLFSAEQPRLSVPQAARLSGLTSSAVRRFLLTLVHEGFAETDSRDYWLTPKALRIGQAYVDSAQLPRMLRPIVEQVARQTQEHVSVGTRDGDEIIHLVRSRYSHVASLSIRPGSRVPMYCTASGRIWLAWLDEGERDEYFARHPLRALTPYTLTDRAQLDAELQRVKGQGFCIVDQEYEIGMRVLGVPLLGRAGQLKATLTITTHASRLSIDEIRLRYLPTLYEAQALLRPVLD

[2] = target: T2, LigR2 (Pseudomonas putida KT2440) (UniProt Q88JP8)
T2 sequence: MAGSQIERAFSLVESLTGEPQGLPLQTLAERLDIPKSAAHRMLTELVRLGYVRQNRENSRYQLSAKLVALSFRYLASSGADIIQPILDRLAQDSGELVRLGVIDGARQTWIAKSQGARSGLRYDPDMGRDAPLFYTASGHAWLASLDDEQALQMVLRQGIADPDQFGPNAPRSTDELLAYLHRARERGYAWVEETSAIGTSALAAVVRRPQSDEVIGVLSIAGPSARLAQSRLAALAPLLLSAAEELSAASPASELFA

[3] = tested on: LigR1 (Pseudomonas putida KT2440)
[4] = tested on: LigR2 (Pseudomonas putida KT2440)

Substance | binding [1] | Kd [2] [nM] | Kd [3] [nM] | Kd [4] [nM]
GGTAATGCTGCCGGCCCATGATGCCGGCGCCAATCAAGGCAATACGAAGGGGTGCGTTCAACAGCCTGTCCTCTTGTCATTGTTGTTATGAAATTCTGAAACCGGGTTCCAAAATTCATACTCGACAATTTAGAACCAAGTTCAGCTTTTCAGAAGAACGGGCGCAACAGACTGTGCGGTAATCGACCGGAATATTCCCTCAGGCAAACAGCTCGCTGGCGGGACTGGCCGCCGACAGCTCTTCTGC (double strand) [lig2 intergenic region probe] | no binding | 150 | – | –
lig1 intergenic region probe | – | – | 220 | 21600
lig2 intergenic region probe | – | – | – | 150

From article doi:10.1101/2025.08.13.670189
